Data reported in patent publication US20150344570A1 (published 2015).

T1: FcγRIIb (human, UniProt P31994 43-217)
T1 construct: extracellular domain; also called FcgRIIb; CD32B
T1 sequence (looked up): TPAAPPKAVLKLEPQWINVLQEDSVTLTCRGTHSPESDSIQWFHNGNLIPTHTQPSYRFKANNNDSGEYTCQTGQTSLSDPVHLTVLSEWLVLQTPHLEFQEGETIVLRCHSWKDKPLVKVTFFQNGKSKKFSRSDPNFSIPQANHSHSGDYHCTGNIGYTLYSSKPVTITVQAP

T2: FcγRIIa H (human, UniProt P12318 34-217)
T2 construct: extracellular domain; also called FcgRIIa H; 2aH; not shown: His tag at the C terminus
T2 sequence (looked up): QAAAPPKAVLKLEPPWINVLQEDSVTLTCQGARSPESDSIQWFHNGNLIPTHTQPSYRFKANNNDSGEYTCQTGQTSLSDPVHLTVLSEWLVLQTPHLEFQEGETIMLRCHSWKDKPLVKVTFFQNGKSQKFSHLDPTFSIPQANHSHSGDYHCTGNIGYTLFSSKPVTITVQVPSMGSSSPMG


Columns and labels:
FcγRIa [1] = target: T3, FcγRIa (human, UniProt P12314 16-292); experiment: ratio of He/Con_1a to He/Con_2b (FcγRIa over FcγRIIb), SPR
T3 construct: extracellular domain; also called FcgRI; CD64
Outline: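 Binding responses come from Biacore SPR with FcγR as analyte over antibody captured on an antigen-peptide surface. Conditions: HBS-EP+ buffer, 25 °C.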

FcγRIa [2] = target: T3, FcγRIa; experiment: SPR (Biacore), captured antibody, soluble FcγR; relative to GpH7-A5/GpH7-B3/GpL16-k0 = 100
FcγRIIb = target: T1, FcγRIIb; experiment: as above
FcγRIIa H [3] = target: T2, FcγRIIa H; experiment: SPR (Biacore); He/Con_2aH divided by He/Con_2b (FcγRIIa H versus FcγRIIb)
Procedure: (§1) The heterodimerized antibodies He Abs in which one of the H chains was introduced with an alteration were assayed for their binding activities to each activating FcγR and inhibitory FcγR according to the method described in Example 4. […] The activating FcγRs in FIGS. 26, 27, 28, and 29 are FcγRIa, FcγRIIa (R), FcγRIIa (H), and FcγRIIIa, respectively.
(§2) Analysis of interaction between objective antibody and the FcγR was carried out using Biacore T100 (GE Healthcare). HBS-EP+ (GE Healthcare) was used as the running buffer, and the measurement temperature was set to 25° C. Chips produced by immobilizing the antigen peptide by the amine coupling method to a Series S Sencor Chip CM5 (GE Healthcare), or alternatively, chips produced by allowing preliminarily biotinylated antigen peptides to interact with and immobilize onto a Series S Sensor Chip SA (certified) (GE Healthcare) were used. Antibodies of interest were captured onto an antigen peptide-immobilized chip, and allowed to interact to each FcγR diluted with running buffer. To regenerate and repeatedly use the chip, the antibodies captured on the chip were washed off by reacting 10 mM glycine-HCl, pH 1.5.

FcγRIIa H [4] = target: T2, FcγRIIa H; experiment: SPR (Biacore), FcγR passed over captured antibody; binding amount as % of control GpH7-A5/GpH7-B3/GpL16-k0 (=100)
Procedure: as §1, §2

T3 sequence (P12314 16-292): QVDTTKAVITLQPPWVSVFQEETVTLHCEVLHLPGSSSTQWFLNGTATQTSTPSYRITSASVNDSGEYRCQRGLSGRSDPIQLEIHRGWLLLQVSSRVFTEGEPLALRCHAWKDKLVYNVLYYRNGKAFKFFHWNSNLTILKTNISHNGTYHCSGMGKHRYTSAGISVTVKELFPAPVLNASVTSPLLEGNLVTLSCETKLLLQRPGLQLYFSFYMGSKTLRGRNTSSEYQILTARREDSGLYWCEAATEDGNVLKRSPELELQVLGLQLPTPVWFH

Binder | He_1a/2b (Ia/IIb) (FcγRIa [1]) | He/Con_1a (FcγRIa [2]) | He/Con_2b (FcγRIIb) | He_2aH/2b (IIaH/IIb) (FcγRIIa H [3]) | He/Con_2aH (FcγRIIa H [4])
GpH7-A5/GpH7-B3 variant P329_10E/GpL16-k0 (antibody, human IgG1, kappa, He Ab; mutation in the GpH7-B3 chain only; also called He Ab) heavy 1: not shown heavy 2: not shown light: DIVMTQSPLSLPVTPGEPASISCQASESLVHSNRNTYLHWYLQKPGQSPQLLIYKVSNRFSGVPDRFSGSGSGTDFTLKISRVEAEDVGVYYCSQNTHVPPTFGQGTKVEIERTVAAPSVFIFPPSDEQLKSGTASVVCLLNNFYPREAKVQWKVDNALQSGNSQESVTEQDSKDSTYSLSSTLTLSKADYEKHKVYACEVTHQGLSSPVTKSFNRGEC | 1.5 | 78.8 % of control | 52.7 % of control | – | –
GpH7-A5/GpH7-B3 variant P329_15Y/GpL16-k0 (antibody, human IgG1, kappa, He Ab; mutation in the GpH7-B3 chain only; also called He Ab) heavy 1: not shown heavy 2: not shown light: DIVMTQSPLSLPVTPGEPASISCQASESLVHSNRNTYLHWYLQKPGQSPQLLIYKVSNRFSGVPDRFSGSGSGTDFTLKISRVEAEDVGVYYCSQNTHVPPTFGQGTKVEIERTVAAPSVFIFPPSDEQLKSGTASVVCLLNNFYPREAKVQWKVDNALQSGNSQESVTEQDSKDSTYSLSSTLTLSKADYEKHKVYACEVTHQGLSSPVTKSFNRGEC | 2.09 | 95.6 % of control | 45.7 % of control | – | –
GpH7-A5/GpH7-B3 variant L328_12R/GpL16-k0 (antibody, human IgG1, kappa, He Ab: mutation in the GpH7-B3 H chain only) heavy 1: not shown heavy 2: not shown light: DIVMTQSPLSLPVTPGEPASISCQASESLVHSNRNTYLHWYLQKPGQSPQLLIYKVSNRFSGVPDRFSGSGSGTDFTLKISRVEAEDVGVYYCSQNTHVPPTFGQGTKVEIERTVAAPSVFIFPPSDEQLKSGTASVVCLLNNFYPREAKVQWKVDNALQSGNSQESVTEQDSKDSTYSLSSTLTLSKADYEKHKVYACEVTHQGLSSPVTKSFNRGEC | – | – | – | 4.6 ratio | 42.5 relative, control = 100
GpH7-A5/GpH7-B3 variant P329_11K/GpL16-k0 (antibody, human IgG1, kappa, He Ab; mutation in the GpH7-B3 chain only; also called He Ab) heavy 1: not shown heavy 2: not shown light: DIVMTQSPLSLPVTPGEPASISCQASESLVHSNRNTYLHWYLQKPGQSPQLLIYKVSNRFSGVPDRFSGSGSGTDFTLKISRVEAEDVGVYYCSQNTHVPPTFGQGTKVEIERTVAAPSVFIFPPSDEQLKSGTASVVCLLNNFYPREAKVQWKVDNALQSGNSQESVTEQDSKDSTYSLSSTLTLSKADYEKHKVYACEVTHQGLSSPVTKSFNRGEC | 4.17 | 70.4 % of control | 16.9 % of control | – | –
GpH7-A5/GpH7-B3 variant A327_12R/GpL16-k0 (antibody, human IgG1, kappa, He Ab: mutation in the GpH7-B3 H chain only) heavy 1: not shown heavy 2: not shown light: DIVMTQSPLSLPVTPGEPASISCQASESLVHSNRNTYLHWYLQKPGQSPQLLIYKVSNRFSGVPDRFSGSGSGTDFTLKISRVEAEDVGVYYCSQNTHVPPTFGQGTKVEIERTVAAPSVFIFPPSDEQLKSGTASVVCLLNNFYPREAKVQWKVDNALQSGNSQESVTEQDSKDSTYSLSSTLTLSKADYEKHKVYACEVTHQGLSSPVTKSFNRGEC | – | – | – | 1.26 ratio | 11.3 relative, control = 100

More lines, now with the values ahead:

He_1a/2b (Ia/IIb) (FcγRIa [1]) | He/Con_1a (FcγRIa [2]) | He/Con_2b (FcγRIIb) | He_2aH/2b (IIaH/IIb) (FcγRIIa H [3]) | He/Con_2aH (FcγRIIa H [4]) | Binder
2.29 | 92.4 % of control | 40.4 % of control | – | – | GpH7-A5/GpH7-B3 variant P329_18N/GpL16-k0 (antibody, human IgG1, kappa, He Ab; mutation in the GpH7-B3 chain only; also called He Ab) heavy 1: not shown heavy 2: not shown light: DIVMTQSPLSLPVTPGEPASISCQASESLVHSNRNTYLHWYLQKPGQSPQLLIYKVSNRFSGVPDRFSGSGSGTDFTLKISRVEAEDVGVYYCSQNTHVPPTFGQGTKVEIERTVAAPSVFIFPPSDEQLKSGTASVVCLLNNFYPREAKVQWKVDNALQSGNSQESVTEQDSKDSTYSLSSTLTLSKADYEKHKVYACEVTHQGLSSPVTKSFNRGEC
1.88 | 85.3 % of control | 45.4 % of control | – | – | GpH7-A5/GpH7-B3 variant P331_01G/GpL16-k0 (antibody, human IgG1, kappa, He Ab; mutation in the GpH7-B3 chain only; also called He Ab) heavy 1: not shown heavy 2: not shown light: DIVMTQSPLSLPVTPGEPASISCQASESLVHSNRNTYLHWYLQKPGQSPQLLIYKVSNRFSGVPDRFSGSGSGTDFTLKISRVEAEDVGVYYCSQNTHVPPTFGQGTKVEIERTVAAPSVFIFPPSDEQLKSGTASVVCLLNNFYPREAKVQWKVDNALQSGNSQESVTEQDSKDSTYSLSSTLTLSKADYEKHKVYACEVTHQGLSSPVTKSFNRGEC
1.23 | 113 % of control | 91.9 % of control | – | – | GpH7-A5/GpH7-B3 variant T335_12R/GpL16-k0 (antibody, human IgG1, kappa, He Ab; mutation in the GpH7-B3 chain only; also called He Ab) heavy 1: not shown heavy 2: not shown light: DIVMTQSPLSLPVTPGEPASISCQASESLVHSNRNTYLHWYLQKPGQSPQLLIYKVSNRFSGVPDRFSGSGSGTDFTLKISRVEAEDVGVYYCSQNTHVPPTFGQGTKVEIERTVAAPSVFIFPPSDEQLKSGTASVVCLLNNFYPREAKVQWKVDNALQSGNSQESVTEQDSKDSTYSLSSTLTLSKADYEKHKVYACEVTHQGLSSPVTKSFNRGEC
